Measurements taken from the nanobody polyreactivity screen of Harvey et al. (2022).

Assay: yeast display, Sf9 membrane polyspecificity reagent, FACS + sequencing; frameworks hold sequencing errors
In short: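 In a synthetic yeast display library (Saccharomyces cerevisiae BJ5465), nanobody expression was induced with galactose for 36–48 hours. FACS gates were set low and high (top ~1%) using anti-HA fluorescence for expression and streptavidin fluorescence for binding of the Sf9 membrane reagent. Each polyreactivity label is drawn from the gate of origin.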

Sequence	polyreactivity (PSR sort gate)
QVQLVESGGGLVQAGGSLRISCAASGSIFRNYAMGWYRQAPGKERELVAAISRNGGTTYYADSVKGRFTISRDNAKNTVYLQMNSLKPEDTAVYYCARLYYTQKDSKTGYGYWGQGTQVTVSS	high polyreactivity
QVQLVESGGGLVQAGGSLRISCAASGSIFSYYAMGWYRQAPGTERELVAAITRGGTTYYADSVKGRFTISRDNAKNTVYLQMNSLKPEDTAVYYCAVYYYSGTAGYRYGYWGQGTQVTVSS	high polyreactivity
QVQLVESGGGLVQAGGSLRISCAASGSIFVTNAMGWYRQAPGKERELVAAISSGGNTNYADSVKGLFTISRDNAKNTVYLQMNSLKPEDTAVYYCAKDPDKVDYVDMDYWGQGTQVTVSS	low polyreactivity
QVQLVESGGGLVQAGGSLRISCAASGSIFVYYGMGWYRQAPGKERELVAAISSGGSTHYADSVKGRFTISRDNAKNTVYLQMNSLKPEDTAVYYCAAERFFWLRSYPRYYYWGQGTQVTVSS	low polyreactivity
QVQLVESGGGLVQAGGSLRISCAASGSIYSAYVMGWYRQAPGKERELVSAITRSGGSTYYADSVKGRFTISRDNAKNTVYFQMNSLKPEDTAVYYCAVDYLLHYYSYIEDYWGQGTQVTVSS	low polyreactivity
QVQLVESGGGLVQAGGSLRISCAASGSIYWDNAMGWYRQAPGQESELVAAITSSGDTTYYADSVKGRFTISRDNAKNTVYLQMNSQKPEDTAVYYCAADYYTAYYVTLDYWGQGTQVTVSS	low polyreactivity
QVQLVESGGGLVQAGGSLRISCAASGSNFIRYAKGWYRQAPGKEMELVAAIRWSAGSTSYADSVKGRFTISRDNAKNTVYLQMNSLKPEDTAVYYCAAGPDYGWRRYDYWGQGTQVTVSS	low polyreactivity
QVQLVESGGGLVQAGGSLRISCAASGSNFPYYAMGWYRQAPWQERELVAAISRGGGTTYYADSVKGRFTISRDNAKNTVYLQMISLKPEDTAVYYCAARQWRISTPYDYWGQGTQVTVSS	high polyreactivity
QVQLVESGGGLVQAGGSLRISCAASGSNFRTYVMGWYRQAPGKERELVAAISRRGGSTYYADSVKGLFTISRDNAKKTVYLQMNSLKPEDTAVYYCAAEDEYSLEFSTLDYWGQGTQVTVSS	high polyreactivity
QVQLVESGGGLVQAGGSLRISCAASGSSFHDYAMGWYTQAPGKERELVAAISSSGTSTYYADSVKGRFTISRDNANNTVYLQMNILKPEDTAVYYCAVYAISFAWSGWTYEDYWGQGTQVNVSS	low polyreactivity
QVQLVESGGGLVQAGGSLRISCAASGSTFAYNAMGWYIQAPGKERELVAVISKGGGRTYYADSVKGRFTISRDNAKNTVYLQINSLKPEDTAVYYCAARYIPVYTREREYNYWGQGTQVTVSS	high polyreactivity
QVQLVESGGGLVQAGGSLRISCAASGSTFEYYAMGWYRQAPGKERELVATISIDGRTNYADSVKGRFTISRDNAKNTVYLQMNSLKPEDTAVYYCAARPYWRHRYDYWGQGTQVTVSS	low polyreactivity
QVQLVESGGGLVQAGGSLRISCAASGSTFFRNAMGRYRQAPGKERELVAAITWSGGSTYYADSVKGRFTISRDNAKNTVYLQMNSLKPEDTAVYYFAAGLSYWTPHYYPFDYWGQGTQVTVSS	low polyreactivity
QVQLVESGGGLVQAGGSLRISCAASGSTFFRYAMGWYRQAPGKERELVAAIYKSGASTYYADSVKGRFTISRDNPKNSVYLQMNSLKPEDTGVYYCNADVKNSSAREWQYGYDYWGQGTQVTVSS	low polyreactivity
QVQLVESGGGLVQAGGSLRISCAASGSTFGEYALGWYRQAPGKERELVAVITSDDNTYYADSVKGRFTISRDNAKNTVYLQMNSLKPEDTAVYYCATDDRRRFKYWGQGTQVTVSS	high polyreactivity
QVQLVESGGGLVQAGGSLRISCAASGSTFGGYVLGWYRPAPGKERELVAAISRSGASTYYADSVKGRFTISRDNAKNTVYLQMNSLKPEDTAVYYCAAYQARGLDYWGQGTQVTVSS	high polyreactivity
QVQLVESGGGLVQAGGSLRISCAASGSTFGRYAMGWYRQAPGKEREFVAAITQGGTNTYYADSVKGRFTISRDNAKNTVYLQMNSLKPEDTAVYYCARVRRYPLRYNYWGQGTQVTVSS	high polyreactivity
QVQLVESGGGLVQAGGSLRISCAASGSTFSPYAMGWYRQAPRKERELFAAISASGGGTYYADSVKGRFTISRDNAKNTVYLQMNSLKPEDTAVYYCARDYGWDISKGRYGYWGQGTQVTVSS	low polyreactivity
QVQLVESGGGLVQAGGSLRISCAASGSTFSRNAMVWYRQAPGKERELVATISRSGRTNYADSVKGRFTISRDNAKNTVYLQMNSLKPEDTAVYYCNAGYRRSYEYWGQCTQVTVSS	low polyreactivity
QVQLVESGGGLVQAGGSLRISCAASGSTFWGYAMGWYRQAPGKERELVATINQSAGSTYYADSVKGRFTISRDNAKNTVYLQMNSLKPEDTAVYYCAAEARVQFSYDYWGQGTQVTVSS	low polyreactivity
QVQLVESGGGLVQAGGSLRISCAASGSTFWGYDKGWYRQAPGKERELVAAITRNGGGTYYADSVKGRFTISRDNAKNTVYLQMNSLKPEDTAVYYCASTRGAYYLYGGHKMDYWGQGSQVTVSS	high polyreactivity
QVQLVESGGGLVQAGGSLRISCAASGSTLLRNAMGWYRQAPGKERELVAVITYSGGSTYYADSVKGRFTISRDNAKNTVYLQMNSLKPEDTAVYYCAADIWYYVRYPTDAYSKFDYCGQGTQVTVSS	low polyreactivity

Sequence	polyreactivity (PSR sort gate)
QVQLVESGGGLVQAGGSLRISCAASGSTNEYAMGWYRQAPGKERELVAAITWSGGRTYYADSVKGRFTISRDNAKNTVYLQMNSLKPEDTAVYYCAKAYYARHGRYTYYSWGQGTQVTVSS	high polyreactivity
QVQLVESGGGLVQAGGSLRISCAASGSTSYNYVMGWYRQAPGKERELVAGITWSDDITYYADSVKGRFTISRDNAKNTVYLQMNSLKPEDTAVYYCAAEDRPLYWRFPDEMDYWGQGTQVTVSS	low polyreactivity
QVQLVESGGGLVQAGGSLRISCAASGTTFPYNGMGWYRQAPGKERELVASISWSGASTYYADSVKGRFTISRDNAKNTVYLQMNSLKPEDTAVYYCAADPGYYSWGSSQDDYWGQGTQVTVSS	low polyreactivity
QVQLVESGGGLVQAGGSLRISCAASGVIFGTYAMRSYRQAPGKERELVAAITSGGTTIYADSVKGRFTISRDNAKNTVYLQMNSLKPEDTAVYYCAARRLYVGYGYDYWGQGTQVTVSS	high polyreactivity
QVQLVESGGGLVQAGGSLRISCAAYGSTFGPYAMGWYRQAPGKERELVAAITWNGGSTYYADSVKGRFTISRDNAKNTVYLQMTSLKPEDTAVYYCAAKAYGRKGTYRVNYWGQGTQVTVSS	high polyreactivity
QVQLVESGGGLVQAGGSLRISCADSASIFWGYAMGWYREAPGKERELVATIRNRGGSTYYADSVKGRFTISRDNAKYTVYLQMNSLKPEDTAVYYCAAVSYRQYYGWGNYWGQVTQVTVSS	low polyreactivity
QVQLVESGGGLVQAGGSLRISCAPSGIIFTDYAMGWYRQAPGKERELVAAISSGGGSTYYADSVKGRFTISRDNAKNTVYLQMNSLKPEDTAVYYCAAEGYLISGAGDYLYDYYWGQGTQVTVSS	high polyreactivity
QVQLVESGGGLVQAGGSLRISCAPSGSTSVQYAMGWYRQAPGKERELVAAIDRSGGSTSYADSVKGRFTISRDNAKNTVYLQMNSLKPEDTAVYYCNADPVRSTYSYDYWGQGTQVTVSS	low polyreactivity
QVQLVESGGGLVQAGGSLRISCASSVRTFAWNAMGWYRQAPGKERELVAVITSGVSTNYADSVKGRFTISRDNANNTVYLQMNSLKPEDTAVYYCAARSWVYSVIGDNWGLGTQVTVSS	low polyreactivity
QVQLVESGGGLVQAGGSLRISCDASGSTFAWYAMGWYRQAPGKERELVAAISRTGRTYYADSVKGRFTISRDNAKNTVYLQMNRLTPEDTAVYYCAGRIERFYRDQRYDYWGQGTQVTVSS	high polyreactivity
QVQLVESGGGLVQAGGSLRISCEAYGSIFGSYAMGWYRQEPGKERELVAGITYRGSSTYYADSVKGRYTISRDNAKNTVYLQMNSLKPEDTAVYYCAADPVFDEYDYWGQGTQVTVSW	low polyreactivity
QVQLVESGGGLVQAGGSLRISCSASGGIFDPYAMGWYRQAPGKERELVAAITNSGGSTYYADSVKGRFTISRDNAKNTVYLQMNSLKPEDSAVYYCAAEGLYVGYDYWGHGTQVTVSS	low polyreactivity
QVQLVESGGGLVQAGGSLRITCAASGSTFYRNAMGWYRQAPGKERELVAALSRGGSTYYADSVKGRFTISRDNAKNTVYLQMNSLKPEDSAVYYCAARYYSYQYGRHTRYQSVYWGQGTQVTVSS	high polyreactivity
QVQLVESGGGLVQAGGSLRKSCAASGSTFVDYDMGWYRQAPGKERELVAGITTGGSTNYADSVKGRFPISRDNAKNTVYLQMNSLKPEDTAVYYCNADSYPILVPDYLYYWYEYWGQGTQVTVSS	low polyreactivity
QVQLVESGGGLVQAGGSLRLAVLPPDLPSTLNDMGWYRQAPGKERELVAAITRGGSTNYADSVKGRFTISRDNAKNTVYLQMNSLKPEDTAVYDCAAPYAGWRDGGDYWGQGTQVTVSS	low polyreactivity
QVQLVESGGGLVQAGGSLRLCCAASGFICGKYALGWYRQAAGNEWVLVAAITSDGRTYYADSVKGRFTISRDNPKNTVYVQMNSLKPEDTAVYYCAVDYYWYSYSGYDDYWGQGTQVTVSS	high polyreactivity
QVQLVESGGGLVQAGGSLRLCCAASGFTFSWYAMGWYRQAPGKERELVAAISSSGGSTYYADSVKGRFTISRDNAKNTVYLQMYSLKPEDTAVYYCNAYRSASVVVGYDYWGQGTQVTVSS	high polyreactivity
QVQLVESGGGLVQAGGSLRLCCAASGLTFAYYDMGWYRQAPGKERELVAAITSGGTTNYADSVKGRFTISRDNAKNTVYLQMNSLKPEDNAVYYCATDSWYGSWKYDYWGQGTQVTLSS	low polyreactivity
QVQLVESGGGLVQAGGSLRLCCAASGLTFYPNAMGWYRQAPGKEREFVASISISGRTYYADSVKGRFTISRDNAKNTVYLQMNSLKPEDTAVYYCAARYVRSGLYRKYDYWGQGTQVTVSS	high polyreactivity
QVQLVESGGGLVQAGGSLRLCCAASGRTFPYYAMGWYRQAPGKERELVAAISSSGGRTYYADSVKGRFTISRDNAKNTVYLQMNSLKPEDTAVYYCNVDAWYPYQGFLVGYYYWGQGTQVTVSS	low polyreactivity
QVQLVESGGGLVQAGGSLRLCCAASGSTFADNAMGWYRQAPGTDGEFVAGISTNGGSTYYADSVKGRFRISRDNAKTTVDCQLNSLKPEDTAVYDSAAVNYYDQYGDYYWGQGTQVTVSS	low polyreactivity
